Tests used:
[1] = tested on: human microvascular endothelial cells (HMECs); test: Apoptosis of serum-starved HMEC; type: cell-based; details: for cell death / protection from apoptosis, agent alone: VEGF 100 ng/ml, FGF 100 ng/ml, hScd-1ED 30 ug/ml
Experimental: FIGS. 17A-B—Competition with soluble Sdc-1 ectodomain causes enhanced apoptosis of human microvascular endothelial cells (HMECs) in the presence of FGF. (FIG. 17A) HMEC-1 cells were plated overnight on gelatin, then starved for 24 hr to induce the intrinsic pathway of apoptosis. Apoptotic cells were easily observed by DIC microscopy. Examples of apoptotic cells are denoted by black arrows, living cells by red arrows. Cells were treated with 100 ng/ml VEGF, 100 ng/ml FGF, FGF+30 ug/ml hScd-1ED or hScd-1ED alone. […] (FIG. 17B) Quantification of % protection from apoptosis by each treatment. […] VEGF has no effect on this pathway, as it affects the extrinsic pathway of apoptosis which is not induced by serum starvation.
Finally, the inventors performed used human microvascular endothelial cells (HMECs), which also express Sdc-1, as well as the αvβ3 and αvβ5 integrins, to test the theory that endothelial cells undergoing angiogenesis in response to fibroblast growth factor, a common angiogenic agent, will enter apoptosis and die unless the FGF signal is accompanied by a coordinate signal from the αvβ3 integrin. The inventors hypothesis was that recombinant ectodomain of Sdc-1 would block the signal from the αvβ3 integrin and induce apoptosis in the presence of FGF. HMEC cells grown in low serum conditions spontaneously enter apoptosis. […] In fact, treatment with FGF together with the soluble ectodomain protein induced apoptosis beyond that of the low serum condition alone (FIGS. 17A-B).

B82L fibroblasts = test: B82L cell attachment and spreading; type: cell-based, mouse
Description: FIGS. 11A-F—Downregulation of mouse Sdc-1 expression by siRNA blocks αvβ5-dependent cell attachment and spreading on VN. FACS analysis for (FIG. 11A) mouse syndecan-1 (mAb 281.2), (FIG. 11B) αv integrin subunit (mAb H9.2B8), (FIG. 11C) mouse Syndecan-4 (mAb KY8.2), (FIG. 11D) human syndecan-1 (mAb B-B4) and (FIG. 11E) FcR^ecto-hS1 chimera (FITC-conjugated hIgG) expression against isotype IgG controls (red-fill) in vector^NEO (FIGS. 11A-C), human syndecan-1 (FIG. 11D) and FcR^ecto-hS1 (FIG. 11E) expressing B82L cells 48 h after transfection with either 600 nM control (Control) or mouse syndecan-1-specific siRNA (siRNA). (FIG. 11F) B82L^NEO empty vector-transfected control cells and B82L cells expressing human syndecan-1 or the FcR^ecto-hS1 chimera were transfected with control or mouse syndecan-1-specific siRNA and seeded on wells coated with either 5 μg/mL VN alone or a mixed substratum of VN plus 60 μg/mL of antibody directed against mouse syndecan-1 (281.2), human syndecan-1 (B-B4) or the FcR^ecto-hS1 chimera (hIgG). Cells were incubated at 37° C. for 2 h, fixed, and stained with rhodamine-conjugated phalloidin.
FIGS. 12A-B—B82L cell spreading on VN is blocked by recombinant Scd-1ED. (FIG. 12A) B82L fibroblasts were plated on 5 μg/mL VN in the absence of other treatment, or in the presence of 30 μM GST, 1-30 μM GST-mS1ED or 30 μM GST-mS4ED (inset), then fixed and stained with rhodamine-phalloidin for visualization. (FIG. 12B) Quantification of cell adhesion in triplicate samples (±S.E.) plated either with no additions, or concentrations of GST-mS1ED ranging from 0-30 μM. […]
The failure of NEO cells to engage the mixed substratum is indicative of the efficient blockade of mouse Sdc-1 expression by the siRNA. It is unlikely that the mouse Sdc-1-siRNA treatment has any non-specific cellular effects since spreading on VN is specifically rescued by the expression of full-length human Sdc-1 (hS1, FIG. 11F). Spreading of the B82L-hS1 cells is indistinguishable from parental cells. However, spreading on VN is not recovered in cells expressing the FcR^ecto-hS1 chimera—a construct in which the syndecan's ectodomain is replaced by the ectodomain of the human Fcγ receptor Ia (FcR^ecto-hS1)—regardless of whether the cells are plated on VN alone, or VN supplemented with 60 μg/mL of hIgG to engage the FcR^ecto-hS1 construct.
Recombinant Sdc-1 ectodomain competitively blocks αvβ5 integin activity. To test whether soluble Sdc-1 ectodomain will compete with the syndecan activation of the αvβ5 integrin, B82L cells were plated on 5 μg/mL VN in the presence of a recombinant GST fusion protein containing either the ectodomain of mouse Sdc-1 (GST-mS1ED) or human Sdc-1 (GST-hS1ED; data not shown).

[2] = tested on: mouse aortic endothelial cells; test: Mouse aortic endothelial cell spreading on VN; type: cell-based
Description: Secondly, they targeted Sdc-1 expression cells using siRNA.

Molecule: VEGF [reference compound]
- cell death / protection from apoptosis, agent alone ([1]; starved 24 hr): no effect

B1: GST-hS1ED: recombinant GST fusion protein containing the ectodomain of human Sdc-1 (protein)
chain: QIVATNLPPEDQDGSGDDSDNFSGSGAGALQDITLSQQTPSTWKDTQLLTAIPTSPEPTGLEATAASTSTLPAGEGPKEGEAVVLPEVEPGLTAREQEATPRPRETTQLPTTHQASTTTATTAQEPATSHPHRDMQPGHHETSTPAGPSQADLHTPHTEDGGPSATERAAEDGASSQLPAAEGSGEQDFTFETSGENTAVVAVEPDRRNQSPVDQGATGASQGLLDRKEVLG
modifications: left off: a dimerising Fc or GST
- cell attachment and spreading on VN (B82L fibroblasts; 5 μg/mL VN, S1ED 1-30 μM, GST and GST-mS4ED 30 μM): increasing blockade
- lowest concentration tested at which competition occurs (B82L fibroblasts; cells plated on 5 μg/mL VN): 1 µM

B2: Sdc-1 ectodomain: recombinant Sdc-1 ectodomain competitor; species and fusion not stated at this place (protein)
chain: QIVATNLPPEDQDGSGDDSDNFSGSGAGALQDITLSQQTPSTWKDTQLLTAIPTSPEPTGLEATAASTSTLPAGEGPKEGEAVVLPEVEPGLTAREQEATPRPRETTQLPTTHQASTTTATTAQEPATSHPHRDMQPGHHETSTPAGPSQADLHTPHTEDGGPSATERAAEDGASSQLPAAEGSGEQDFTFETSGENTAVVAVEPDRRNQSPVDQGATGASQGLLDRKEVLG
- competitor concentration at which spreading on VN is blocked [2]: 1 µM

B3: hScd-1ED: soluble human Sdc-1 ectodomain used as competitor on HMEC cells (protein, UniProt P18827 23-254, looked up)
extracellular domain: QIVATNLPPEDQDGSGDDSDNFSGSGAGALQDITLSQQTPSTWKDTQLLTAIPTSPEPTGLEATAASTSTLPAGEGPKEGEAVVLPEVEPGLTAREQEATPRPRETTQLPTTHLASTTTATTAQEPATSHPHRDMQPGHHETSTPAGPSQADLHTPHTEDGGPSATERAAEDGASSQLPAAEGSGEQDFTFETSGENTAVVAVEPDRRNQSPVDQGATGASQGLLDRKEVLG
modifications: extracellular domain
- cell death in 15% serum ([1]; control cells in 15% serum, not shown): no effect
- apoptosis in the presence of FGF ([1]; starved 24 hr, 100 ng/ml FGF + 30 ug/ml hScd-1ED): dramatically increases apoptosis
- cell death / protection from apoptosis, agent alone ([1]; starved 24 hr): protective effect

— patent US20060134122A1, “Peptides of syndecan-1 for inhibition of cancer” (priority 2004, published 2006)
